Here are results for 4 molecules from patent US20220411531A1 (SUMGEN MAB BEIJING BIOTECH, published 2022).

The target in assay [1] is T1, AXL on the surfaces of human tumour cells (A549, MDA-MB-231, 786-O) (human, UniProt P30530 27-894).
T1 construct: Endogenous AXL on human tumour cell lines; The tie to the cell-line protein rests on this general definition only; also called cell surface antigen
T1 sequence: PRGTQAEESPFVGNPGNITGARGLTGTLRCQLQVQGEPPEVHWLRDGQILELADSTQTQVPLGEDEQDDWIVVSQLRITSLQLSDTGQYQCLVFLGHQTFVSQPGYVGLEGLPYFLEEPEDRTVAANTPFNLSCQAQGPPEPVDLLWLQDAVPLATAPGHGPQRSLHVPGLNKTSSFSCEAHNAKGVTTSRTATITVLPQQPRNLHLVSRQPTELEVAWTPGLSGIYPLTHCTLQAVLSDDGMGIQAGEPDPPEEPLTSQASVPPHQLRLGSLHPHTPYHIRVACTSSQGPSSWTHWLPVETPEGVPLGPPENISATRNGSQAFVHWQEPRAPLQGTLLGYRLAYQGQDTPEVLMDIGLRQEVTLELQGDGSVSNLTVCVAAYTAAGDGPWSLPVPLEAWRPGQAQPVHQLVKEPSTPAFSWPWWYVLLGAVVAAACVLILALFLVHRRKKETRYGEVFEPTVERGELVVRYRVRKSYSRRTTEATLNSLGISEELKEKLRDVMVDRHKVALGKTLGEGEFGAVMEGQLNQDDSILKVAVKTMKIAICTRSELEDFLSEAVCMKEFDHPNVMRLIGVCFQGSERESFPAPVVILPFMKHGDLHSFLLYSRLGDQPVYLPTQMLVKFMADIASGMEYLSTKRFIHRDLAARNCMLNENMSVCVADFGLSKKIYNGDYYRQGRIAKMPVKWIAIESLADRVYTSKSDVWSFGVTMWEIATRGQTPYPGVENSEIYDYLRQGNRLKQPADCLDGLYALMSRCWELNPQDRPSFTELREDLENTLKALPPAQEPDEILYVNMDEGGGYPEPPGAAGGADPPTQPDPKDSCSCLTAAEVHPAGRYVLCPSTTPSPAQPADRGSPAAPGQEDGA
The assay is described as follows: flow cytometry on MDA-MB-231 cells (second experiment, FIG. 9); MDA-MB-231 cells; FIG. 9. The method, then: (§1) Cells in a logarithmic growth phase were collected; the cell density was regulated to 5×10⁶ cells/mL; and pre-cooling was performed on ice. The antibodies 6G12M11, 6G12M21, 6G12M31, and 6G12M41 were diluted to 20 μg/ml with pre-cooled normal saline containing 2% FBS. 100 μl of cells were taken, and an equal volume of each of the foregoing diluted antibodies was added to the cells to react for 30 minutes at 4° C. in the dark. After the completion of reaction, the cells were washed twice with pre-cooled physiological saline containing 2% FBS (6000 rpm, 45 s). The secondary antibody PE Mouse Anti-Human IgG (BD Pharmingen) was diluted at 1:5 with pre-cooled physiological saline containing 2% FBS, and 100 μL of the secondary antibody was taken for resuspending the cells, with a reaction conducted for 30 minutes at 4° C. in the dark. After the reaction, the cells were washed twice with pre-cooled physiological saline containing 2% FBS (6000 rpm, 45 s). The cells were resuspended by using 400 μl of 1% paraformaldehyde. The binding of antibodies to cell surface antigens was analyzed by means of a flow cytometer (BD Calibur).
A general note: A flow cytometer gives signals particle by particle.

Assay [2] concerns the target T1, AXL on the surfaces of human tumour …. The assay is described as follows: flow cytometry on 786-O cells (second experiment, FIG. 10); 786-O cells; FIG. 10. As to the method:
as §1

Assay [3] deals with T2, TYRO3-Fc (ACRO Biosystems) (UniProt Q06418 41-428, limits assumed).
T2 construct: Bought reagent; also called TRYO3; not shown: Fc part
T2 sequence (looked up): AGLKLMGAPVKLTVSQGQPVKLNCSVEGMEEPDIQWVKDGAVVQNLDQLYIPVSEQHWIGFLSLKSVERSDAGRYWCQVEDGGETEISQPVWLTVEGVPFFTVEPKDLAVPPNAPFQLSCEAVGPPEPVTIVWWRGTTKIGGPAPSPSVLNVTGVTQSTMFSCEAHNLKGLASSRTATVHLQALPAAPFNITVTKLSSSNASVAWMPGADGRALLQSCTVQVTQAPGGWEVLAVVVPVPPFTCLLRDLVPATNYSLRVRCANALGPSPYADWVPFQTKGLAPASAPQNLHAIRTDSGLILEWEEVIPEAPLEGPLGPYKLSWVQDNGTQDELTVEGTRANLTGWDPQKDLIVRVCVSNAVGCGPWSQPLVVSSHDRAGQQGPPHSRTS
The assay is described as follows: ELISA, TYRO3-Fc coated at 1 µg/ml, anti-human IgG Fab-HRP, OD450. As to the method: TYRO3-Fc (ACRO Biosystems), MER-His (ACRO Biosystems), and AXL-His (Sino Biological Inc.) each were coated at 1 μg/ml on an ELISA strip, which was held at 4° C. overnight. After the ELISA strips were washed with PBST, 10% fetal bovine serum was added to the ELISA strip, which was blocked for 1 hour at 37° C. Antibodies […], 6G12M21, 6G12M31 and 6G12M41 were added to react at 37° C. for 1 hour. After the ELISA strips were washed with PBST, horseradish peroxidase-labeled goat anti-human IgG Fab secondary antibodies (Goat Anti-Human IgG (Fab′)₂ (HRP), Abcam) were added to react for 30 minutes at 37° C. The ELISA strips were washed 5 times with PBST, and patted and dried on absorbent paper to remove residual droplets as much as possible. 100 μl of TMB (eBioscience, #85-00-420) was added to each well, and the ELISA strips were held for 1.5 min at room temperature (20±5° C.) in the dark. 100 μl of 2N H₂SO₄ stop solution was added to each well to terminate substrate reaction. The OD value was read at 450 nm by a microplate reader to analyze the binding ability of antibodies to the proteins.
On the technique in general: ELISA stands for enzyme-linked immunosorbent assay.

The target of assay [4] is T1, AXL on the surfaces of human tumour …. The assay is described as follows: flow cytometry on A549 cells. The method, then:
as §1

Assay [5] has the same target. The assay is described as follows: flow cytometry on MDA-MB-231 cells. The method, then: as §1
The target is the same in assay [6]. The experiment in a line: flow cytometry on 786-O cells. The method, then:
as §1

Assay [7] shares this target. The experiment in a line: flow cytometry on 786-O cells (second experiment, FIG. 10); 786-O cells; second experiment, FIG. 10. As to the method:
as §1

B1: antibody 6G12M31 (antibody, V domains shown)
VH: QVQLVQSGPGLVKPSQSLSLTCSVTGFSISSGYYWNWIRQFPGQKLEWMGYRSYDGSNNYDPSLKNRISITRDTSKNQFFLKLNSVTSEDTATYYCARGWLLHYTMDYWGQGTTVTVSS
VL: DIVMTQSPSSVSVTLGQSASISCRSSRSLLHSNGFTYLYWYLQKPGQSPQLLIYQMSNLASGVPDRFSGSGSGTDFTLKISRVEAEDVGVYYCGQNLELPLTFGGGTKLEIK
On to B1, for which the values for the EC50 in assay [1] and in assay [2] were 0.6 µg/mL and 0.53 µg/mL, respectively.

B2: antibody 6G12M11 (antibody, human IgG1, kappa, V domains shown)
VH: QVQLVQSGPGLVKPSQSLSLTCAVTGFSISSGYYWNWIRQFPGQKLEWMGYRSYDGSNNYNPSLKNRISITRDTSKNQFFLKLNSVTSEDTATYYCARGWLLHYTMDYWGQGTTVTVSS
VL: EIVMTQSPSSVSVTLGQSASISCRSSRSLLHSNGFTYLYWYLQKPGQSPQLLIYQMSNLASGVPDRFSGSGSGTDFTLKISRVEAEDVGVYYCGQNLELPLTFGGGTKLEIKR
For the molecule B2, in assay [3], the binding result is “no binding (tested: about 1 µg/mL)”. Also, the EC50 in assay [4] is 0.46 µg/mL; in assay [5], 0.59 µg/mL; in assay [6], 0.43 µg/mL.

B3: antibody 6G12M21 (antibody, human IgG1, kappa, V domains shown)
VH: QVQLVQSGPGLVKPSQSLSLTCSVTGFSISSGYYWNWIRQFPGQKLEWMGYRSYDGSNNYNPSLKNRISITRDTSKNQFFLKLNSVTSEDTATYYCARGWLLHYTMDYWGQGTTVTVSS
VL: DIVMTQSPSSVSVTLGQSASISCRSSRSLLHSNGFTYLYWYLQKPGQSPQLLIYQMSNLASGVPDRFSGSGSGTDFTLKISRVEAEDVGVYYCGQNLELPLTFGGGTKLEIKR
With B3, the EC50 in assay [4] worked out at 0.78 µg/mL; in assay [5], 0.39 µg/mL; in assay [6], 0.31 µg/mL; in assay [7], 0.4 µg/mL.

B4: antibody 6G12M41 (antibody, V domains shown)
VH: QVQLVQSGPGLVKPSQSLSLTCSVTGFSISSGYYWNWIRQFPGQKLEWMGYRSYDGSNNYGPSLKNRISITRDTSKNQFFLKLNSVTSEDTATYYCARGWLLHYTMDYWGQGTTVTVSS
VL: DIVMTQSPSSVSVTLGQSASISCRSSRSLLHSNGFTYLYWYLQKPGQSPQLLIYQMSNLASGVPDRFSGSGSGTDFTLKISRVEAEDVGVYYCGQNLELPLTFGGGTKLEIK
Regarding B4, the figures for the EC50 in assay [1] and in assay [2] were 0.54 µg/mL and 0.47 µg/mL, respectively.

The term EC50 denotes the concentration that produces a half-maximal response. Low values mean an effect from little substance, high ones a need for much substance.
